# Measured values reported in patent publication US20210388087A1.
# Target: Human CD137 ECD (human)
# Test: single mutant vs template dBBDu183H
# Sequence of Human CD137 ECD (human) (chain, as listed by the source limits assumed): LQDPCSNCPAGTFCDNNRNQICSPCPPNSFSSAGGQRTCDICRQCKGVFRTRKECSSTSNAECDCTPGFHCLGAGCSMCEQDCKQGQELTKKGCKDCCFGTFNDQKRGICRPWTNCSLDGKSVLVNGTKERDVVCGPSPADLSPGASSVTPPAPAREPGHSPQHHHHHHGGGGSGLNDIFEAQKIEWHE
row,Binder,fold change of affinity [fold]
1,"H183/L072 VH W33S (antibody, name in Kabat numbering, V domains shown) VH: QVQLVESGGGLVQPGRSLRLSCAASGFTFSNASMHWVRQAPGKGLEWVAQIKDKGNAYAAYYAPSVKGRFTISRDDSKNSIYLQMNSLKTEDTAVYYCHYVHYASASTVLPAFGVDAWGQGTTVTVSS VL: DIVMTQSPLSLPVTPGEPASISCQASQELVHMNRNTYLHWYQQKPGQAPRLLIYKVSNRFPGVPDRFSGSGSGTDFTLKISRVEAEDVGVYYCAQGTSVPFTFGQGTKLEIK",0
2,"H183/L072 VH Y55T (antibody, name in Kabat numbering, V domains shown) VH: QVQLVESGGGLVQPGRSLRLSCAASGFTFSNAWMHWVRQAPGKGLEWVAQIKDKGNATAAYYAPSVKGRFTISRDDSKNSIYLQMNSLKTEDTAVYYCHYVHYASASTVLPAFGVDAWGQGTTVTVSS VL: DIVMTQSPLSLPVTPGEPASISCQASQELVHMNRNTYLHWYQQKPGQAPRLLIYKVSNRFPGVPDRFSGSGSGTDFTLKISRVEAEDVGVYYCAQGTSVPFTFGQGTKLEIK",0
3,"H183/L072 VH T28D (antibody, name in Kabat numbering, V domains shown) VH: QVQLVESGGGLVQPGRSLRLSCAASGFDFSNAWMHWVRQAPGKGLEWVAQIKDKGNAYAAYYAPSVKGRFTISRDDSKNSIYLQMNSLKTEDTAVYYCHYVHYASASTVLPAFGVDAWGQGTTVTVSS VL: DIVMTQSPLSLPVTPGEPASISCQASQELVHMNRNTYLHWYQQKPGQAPRLLIYKVSNRFPGVPDRFSGSGSGTDFTLKISRVEAEDVGVYYCAQGTSVPFTFGQGTKLEIK",0
4,"H183/L072 VH T28S (antibody, name in Kabat numbering, V domains shown) VH: QVQLVESGGGLVQPGRSLRLSCAASGFSFSNAWMHWVRQAPGKGLEWVAQIKDKGNAYAAYYAPSVKGRFTISRDDSKNSIYLQMNSLKTEDTAVYYCHYVHYASASTVLPAFGVDAWGQGTTVTVSS VL: DIVMTQSPLSLPVTPGEPASISCQASQELVHMNRNTYLHWYQQKPGQAPRLLIYKVSNRFPGVPDRFSGSGSGTDFTLKISRVEAEDVGVYYCAQGTSVPFTFGQGTKLEIK",0
5,"H183/L072 VH H35Q (antibody, name in Kabat numbering, V domains shown) VH: QVQLVESGGGLVQPGRSLRLSCAASGFTFSNAWMQWVRQAPGKGLEWVAQIKDKGNAYAAYYAPSVKGRFTISRDDSKNSIYLQMNSLKTEDTAVYYCHYVHYASASTVLPAFGVDAWGQGTTVTVSS VL: DIVMTQSPLSLPVTPGEPASISCQASQELVHMNRNTYLHWYQQKPGQAPRLLIYKVSNRFPGVPDRFSGSGSGTDFTLKISRVEAEDVGVYYCAQGTSVPFTFGQGTKLEIK",0
6,"H183/L072 VH I51Q (antibody, name in Kabat numbering, V domains shown) VH: QVQLVESGGGLVQPGRSLRLSCAASGFTFSNAWMHWVRQAPGKGLEWVAQQKDKGNAYAAYYAPSVKGRFTISRDDSKNSIYLQMNSLKTEDTAVYYCHYVHYASASTVLPAFGVDAWGQGTTVTVSS VL: DIVMTQSPLSLPVTPGEPASISCQASQELVHMNRNTYLHWYQQKPGQAPRLLIYKVSNRFPGVPDRFSGSGSGTDFTLKISRVEAEDVGVYYCAQGTSVPFTFGQGTKLEIK",0
7,"H183/L072 VH M34S (antibody, name in Kabat numbering, V domains shown) VH: QVQLVESGGGLVQPGRSLRLSCAASGFTFSNAWSHWVRQAPGKGLEWVAQIKDKGNAYAAYYAPSVKGRFTISRDDSKNSIYLQMNSLKTEDTAVYYCHYVHYASASTVLPAFGVDAWGQGTTVTVSS VL: DIVMTQSPLSLPVTPGEPASISCQASQELVHMNRNTYLHWYQQKPGQAPRLLIYKVSNRFPGVPDRFSGSGSGTDFTLKISRVEAEDVGVYYCAQGTSVPFTFGQGTKLEIK",0
8,"H183/L072 VH D52aQ (antibody, name in Kabat numbering, V domains shown) VH: QVQLVESGGGLVQPGRSLRLSCAASGFTFSNAWMHWVRQAPGKGLEWVAQIKQKGNAYAAYYAPSVKGRFTISRDDSKNSIYLQMNSLKTEDTAVYYCHYVHYASASTVLPAFGVDAWGQGTTVTVSS VL: DIVMTQSPLSLPVTPGEPASISCQASQELVHMNRNTYLHWYQQKPGQAPRLLIYKVSNRFPGVPDRFSGSGSGTDFTLKISRVEAEDVGVYYCAQGTSVPFTFGQGTKLEIK",0
9,"H183/L072 VH N53Q (antibody, name in Kabat numbering, V domains shown) VH: QVQLVESGGGLVQPGRSLRLSCAASGFTFSNAWMHWVRQAPGKGLEWVAQIKDKGQAYAAYYAPSVKGRFTISRDDSKNSIYLQMNSLKTEDTAVYYCHYVHYASASTVLPAFGVDAWGQGTTVTVSS VL: DIVMTQSPLSLPVTPGEPASISCQASQELVHMNRNTYLHWYQQKPGQAPRLLIYKVSNRFPGVPDRFSGSGSGTDFTLKISRVEAEDVGVYYCAQGTSVPFTFGQGTKLEIK",0
10,"H183/L072 VH Y55S (antibody, name in Kabat numbering, V domains shown) VH: QVQLVESGGGLVQPGRSLRLSCAASGFTFSNAWMHWVRQAPGKGLEWVAQIKDKGNASAAYYAPSVKGRFTISRDDSKNSIYLQMNSLKTEDTAVYYCHYVHYASASTVLPAFGVDAWGQGTTVTVSS VL: DIVMTQSPLSLPVTPGEPASISCQASQELVHMNRNTYLHWYQQKPGQAPRLLIYKVSNRFPGVPDRFSGSGSGTDFTLKISRVEAEDVGVYYCAQGTSVPFTFGQGTKLEIK",0
11,"H183/L072 VH D52aS (antibody, name in Kabat numbering, V domains shown) VH: QVQLVESGGGLVQPGRSLRLSCAASGFTFSNAWMHWVRQAPGKGLEWVAQIKSKGNAYAAYYAPSVKGRFTISRDDSKNSIYLQMNSLKTEDTAVYYCHYVHYASASTVLPAFGVDAWGQGTTVTVSS VL: DIVMTQSPLSLPVTPGEPASISCQASQELVHMNRNTYLHWYQQKPGQAPRLLIYKVSNRFPGVPDRFSGSGSGTDFTLKISRVEAEDVGVYYCAQGTSVPFTFGQGTKLEIK",0

# Second part, the binder after the results:
row,fold change of affinity [fold],Binder
1,0,"H183/L072 VH M34Q (antibody, name in Kabat numbering, V domains shown) VH: QVQLVESGGGLVQPGRSLRLSCAASGFTFSNAWQHWVRQAPGKGLEWVAQIKDKGNAYAAYYAPSVKGRFTISRDDSKNSIYLQMNSLKTEDTAVYYCHYVHYASASTVLPAFGVDAWGQGTTVTVSS VL: DIVMTQSPLSLPVTPGEPASISCQASQELVHMNRNTYLHWYQQKPGQAPRLLIYKVSNRFPGVPDRFSGSGSGTDFTLKISRVEAEDVGVYYCAQGTSVPFTFGQGTKLEIK"
2,0,"H183/L072 VH M34T (antibody, name in Kabat numbering, V domains shown) VH: QVQLVESGGGLVQPGRSLRLSCAASGFTFSNAWTHWVRQAPGKGLEWVAQIKDKGNAYAAYYAPSVKGRFTISRDDSKNSIYLQMNSLKTEDTAVYYCHYVHYASASTVLPAFGVDAWGQGTTVTVSS VL: DIVMTQSPLSLPVTPGEPASISCQASQELVHMNRNTYLHWYQQKPGQAPRLLIYKVSNRFPGVPDRFSGSGSGTDFTLKISRVEAEDVGVYYCAQGTSVPFTFGQGTKLEIK"
3,0,"H183/L072 VH N53S (antibody, name in Kabat numbering, V domains shown) VH: QVQLVESGGGLVQPGRSLRLSCAASGFTFSNAWMHWVRQAPGKGLEWVAQIKDKGSAYAAYYAPSVKGRFTISRDDSKNSIYLQMNSLKTEDTAVYYCHYVHYASASTVLPAFGVDAWGQGTTVTVSS VL: DIVMTQSPLSLPVTPGEPASISCQASQELVHMNRNTYLHWYQQKPGQAPRLLIYKVSNRFPGVPDRFSGSGSGTDFTLKISRVEAEDVGVYYCAQGTSVPFTFGQGTKLEIK"
4,0,"H183/L072 VH H35S (antibody, name in Kabat numbering, V domains shown) VH: QVQLVESGGGLVQPGRSLRLSCAASGFTFSNAWMSWVRQAPGKGLEWVAQIKDKGNAYAAYYAPSVKGRFTISRDDSKNSIYLQMNSLKTEDTAVYYCHYVHYASASTVLPAFGVDAWGQGTTVTVSS VL: DIVMTQSPLSLPVTPGEPASISCQASQELVHMNRNTYLHWYQQKPGQAPRLLIYKVSNRFPGVPDRFSGSGSGTDFTLKISRVEAEDVGVYYCAQGTSVPFTFGQGTKLEIK"
5,0,"H183/L072 VH F29S (antibody, name in Kabat numbering, V domains shown) VH: QVQLVESGGGLVQPGRSLRLSCAASGFTSSNAWMHWVRQAPGKGLEWVAQIKDKGNAYAAYYAPSVKGRFTISRDDSKNSIYLQMNSLKTEDTAVYYCHYVHYASASTVLPAFGVDAWGQGTTVTVSS VL: DIVMTQSPLSLPVTPGEPASISCQASQELVHMNRNTYLHWYQQKPGQAPRLLIYKVSNRFPGVPDRFSGSGSGTDFTLKISRVEAEDVGVYYCAQGTSVPFTFGQGTKLEIK"
6,0,"H183/L072 VH W33T (antibody, name in Kabat numbering, V domains shown) VH: QVQLVESGGGLVQPGRSLRLSCAASGFTFSNATMHWVRQAPGKGLEWVAQIKDKGNAYAAYYAPSVKGRFTISRDDSKNSIYLQMNSLKTEDTAVYYCHYVHYASASTVLPAFGVDAWGQGTTVTVSS VL: DIVMTQSPLSLPVTPGEPASISCQASQELVHMNRNTYLHWYQQKPGQAPRLLIYKVSNRFPGVPDRFSGSGSGTDFTLKISRVEAEDVGVYYCAQGTSVPFTFGQGTKLEIK"
7,0,"H183/L072 VH K52T (antibody, name in Kabat numbering, V domains shown) VH: QVQLVESGGGLVQPGRSLRLSCAASGFTFSNAWMHWVRQAPGKGLEWVAQITDKGNAYAAYYAPSVKGRFTISRDDSKNSIYLQMNSLKTEDTAVYYCHYVHYASASTVLPAFGVDAWGQGTTVTVSS VL: DIVMTQSPLSLPVTPGEPASISCQASQELVHMNRNTYLHWYQQKPGQAPRLLIYKVSNRFPGVPDRFSGSGSGTDFTLKISRVEAEDVGVYYCAQGTSVPFTFGQGTKLEIK"
8,0,"H183/L072 VH N53T (antibody, name in Kabat numbering, V domains shown) VH: QVQLVESGGGLVQPGRSLRLSCAASGFTFSNAWMHWVRQAPGKGLEWVAQIKDKGTAYAAYYAPSVKGRFTISRDDSKNSIYLQMNSLKTEDTAVYYCHYVHYASASTVLPAFGVDAWGQGTTVTVSS VL: DIVMTQSPLSLPVTPGEPASISCQASQELVHMNRNTYLHWYQQKPGQAPRLLIYKVSNRFPGVPDRFSGSGSGTDFTLKISRVEAEDVGVYYCAQGTSVPFTFGQGTKLEIK"
9,0,"H183/L072 VH K52S (antibody, name in Kabat numbering, V domains shown) VH: QVQLVESGGGLVQPGRSLRLSCAASGFTFSNAWMHWVRQAPGKGLEWVAQISDKGNAYAAYYAPSVKGRFTISRDDSKNSIYLQMNSLKTEDTAVYYCHYVHYASASTVLPAFGVDAWGQGTTVTVSS VL: DIVMTQSPLSLPVTPGEPASISCQASQELVHMNRNTYLHWYQQKPGQAPRLLIYKVSNRFPGVPDRFSGSGSGTDFTLKISRVEAEDVGVYYCAQGTSVPFTFGQGTKLEIK"
10,0,"H183/L072 VH D52aT (antibody, name in Kabat numbering, V domains shown) VH: QVQLVESGGGLVQPGRSLRLSCAASGFTFSNAWMHWVRQAPGKGLEWVAQIKTKGNAYAAYYAPSVKGRFTISRDDSKNSIYLQMNSLKTEDTAVYYCHYVHYASASTVLPAFGVDAWGQGTTVTVSS VL: DIVMTQSPLSLPVTPGEPASISCQASQELVHMNRNTYLHWYQQKPGQAPRLLIYKVSNRFPGVPDRFSGSGSGTDFTLKISRVEAEDVGVYYCAQGTSVPFTFGQGTKLEIK"
